From US20140154252A1 (EMERGENT PRODUCT DEVELOPMENT SEATTLE, published 2014)

T1: CD20 (human, UniProt P11836 1-297)
T1 construct: whole, on cells; 2H7 is called murine anti-human CD20; also called CD20 presented on WIL-2S cells; CD20 on Ramos, BJAB, SU-DHL-6 and DoHH2 B cells
T1 sequence (looked up): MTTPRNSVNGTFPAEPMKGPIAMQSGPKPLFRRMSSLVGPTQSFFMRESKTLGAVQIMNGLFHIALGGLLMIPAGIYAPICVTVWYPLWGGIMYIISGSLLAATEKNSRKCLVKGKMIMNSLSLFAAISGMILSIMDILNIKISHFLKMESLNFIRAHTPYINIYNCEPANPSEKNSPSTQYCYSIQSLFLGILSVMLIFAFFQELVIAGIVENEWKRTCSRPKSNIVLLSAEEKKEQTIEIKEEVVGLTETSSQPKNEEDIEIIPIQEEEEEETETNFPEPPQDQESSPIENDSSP

B1: 2H7-sss-hIgG P238S/P331S-H1-2e12 VHVL (bispecific antibody)
chain: QIVLSQSPAILSASPGEKVTMTCRASSSVSYMHWYQQKPGSSPKPWIYAPSNLASGVPARFSGSGSGTSYSLTISRVEAEDAATYYCQQWSFNPPTFGAGTKLELKDGGGSGGGGSGGGGSSQAYLQQSGAESVRPGASVKMSCKASGYTFTSYNMHWVKQTPRQGLEWIGAIYPGNGDTSYNQKFKGKATLTVDKSSSTAYMQLSSLTSEDSAVYFCARVVYYSNSYWYFDVWGTGTTVTVSEPKSSDKTHTSPPSPAPELLGGSSVFLFPPKPKDTLMISRTPEVTCVVVDVSHEDPEVKFNWYVDGVEVHNAKTKPREEQYNSTYRVVSVLTVLHQDWLNGKEYKCKVSNKALPASIEKTISKAKGQPREPQVYTLPPSRDELTKNQVSLTCLVKGFYPSDIAVEWESNGQPENNYKTTPPVLDSDGSFFLYSKLTVDKSRWQQGNVFSCSVMHEALHNHYTQKSLSLSPGKNSQVQLKESGPGLVAPSQSLSITCTVSGFSLTGYGVNWVRQPPGKGLEWLGMIWGDGSTDYNSALKSRLSITKDNSKSQVFLKMNSLQTDDTARYYCARDGYSNFHYYVMDYWGQGTSVTVSSGGGGSGGGGSGGGGSGGGGSDIVLTQSPASLAVSLGQRATISCRASESVEYYVTSLMQWYQQKPGQPPKLLISAASNVESGVPARFSGSGSGTDFSLNIHPVEEDDIAMYFCQQSRKVPWTFGGGTKLEIKR
notes: Assembled from modules as m11; also called 2H7-sss-hIgG-H1-2e12 HL; TRU015-sss-IgG-H1-2e12 HL
B2: 2H7-sss-hIgG P238S/P331S-H5-2e12 VHVL (bispecific antibody)
chain: QIVLSQSPAILSASPGEKVTMTCRASSSVSYMHWYQQKPGSSPKPWIYAPSNLASGVPARFSGSGSGTSYSLTISRVEAEDAATYYCQQWSFNPPTFGAGTKLELKDGGGSGGGGSGGGGSSQAYLQQSGAESVRPGASVKMSCKASGYTFTSYNMHWVKQTPRQGLEWIGAIYPGNGDTSYNQKFKGKATLTVDKSSSTAYMQLSSLTSEDSAVYFCARVVYYSNSYWYFDVWGTGTTVTVSEPKSSDKTHTSPPSPAPELLGGSSVFLFPPKPKDTLMISRTPEVTCVVVDVSHEDPEVKFNWYVDGVEVHNAKTKPREEQYNSTYRVVSVLTVLHQDWLNGKEYKCKVSNKALPASIEKTISKAKGQPREPQVYTLPPSRDELTKNQVSLTCLVKGFYPSDIAVEWESNGQPENNYKTTPPVLDSDGSFFLYSKLTVDKSRWQQGNVFSCSVMHEALHNHYTQKSLSLSPGKNYGGGGSGGGGSGNSQVQLKESGPGLVAPSQSLSITCTVSGFSLTGYGVNWVRQPPGKGLEWLGMIWGDGSTDYNSALKSRLSITKDNSKSQVFLKMNSLQTDDTARYYCARDGYSNFHYYVMDYWGQGTSVTVSSGGGGSGGGGSGGGGSGGGGSDIVLTQSPASLAVSLGQRATISCRASESVEYYVTSLMQWYQQKPGQPPKLLISAASNVESGVPARFSGSGSGTDFSLNIHPVEEDDIAMYFCQQSRKVPWTFGGGTKLEIKR
notes: Assembled from modules as m11; also called 2H7-sss-hIgG-H5-2e12 HL
B3: 2H7-sss-hIgG P238S/P331S-H2-2e12 VHVL (bispecific antibody)
chain: QIVLSQSPAILSASPGEKVTMTCRASSSVSYMHWYQQKPGSSPKPWIYAPSNLASGVPARFSGSGSGTSYSLTISRVEAEDAATYYCQQWSFNPPTFGAGTKLELKDGGGSGGGGSGGGGSSQAYLQQSGAESVRPGASVKMSCKASGYTFTSYNMHWVKQTPRQGLEWIGAIYPGNGDTSYNQKFKGKATLTVDKSSSTAYMQLSSLTSEDSAVYFCARVVYYSNSYWYFDVWGTGTTVTVSEPKSSDKTHTSPPSPAPELLGGSSVFLFPPKPKDTLMISRTPEVTCVVVDVSHEDPEVKFNWYVDGVEVHNAKTKPREEQYNSTYRVVSVLTVLHQDWLNGKEYKCKVSNKALPASIEKTISKAKGQPREPQVYTLPPSRDELTKNQVSLTCLVKGFYPSDIAVEWESNGQPENNYKTTPPVLDSDGSFFLYSKLTVDKSRWQQGNVFSCSVMHEALHNHYTQKSLSLSPGKGGGGSGNSQVQLKESGPGLVAPSQSLSITCTVSGFSLTGYGVNWVRQPPGKGLEWLGMIWGDGSTDYNSALKSRLSITKDNSKSQVFLKMNSLQTDDTARYYCARDGYSNFHYYVMDYWGQGTSVTVSSGGGGSGGGGSGGGGSGGGGSDIVLTQSPASLAVSLGQRATISCRASESVEYYVTSLMQWYQQKPGQPPKLLISAASNVESGVPARFSGSGSGTDFSLNIHPVEEDDIAMYFCQQSRKVPWTFGGGTKLEIKR
notes: Assembled from modules as m11; also called 2H7-sss-hIgG-H2-2e12 HL
B4: 2H7-sss-hIgG P238S/P331S-H4-2e12 VHVL (bispecific antibody)
chain: QIVLSQSPAILSASPGEKVTMTCRASSSVSYMHWYQQKPGSSPKPWIYAPSNLASGVPARFSGSGSGTSYSLTISRVEAEDAATYYCQQWSFNPPTFGAGTKLELKDGGGSGGGGSGGGGSSQAYLQQSGAESVRPGASVKMSCKASGYTFTSYNMHWVKQTPRQGLEWIGAIYPGNGDTSYNQKFKGKATLTVDKSSSTAYMQLSSLTSEDSAVYFCARVVYYSNSYWYFDVWGTGTTVTVSEPKSSDKTHTSPPSPAPELLGGSSVFLFPPKPKDTLMISRTPEVTCVVVDVSHEDPEVKFNWYVDGVEVHNAKTKPREEQYNSTYRVVSVLTVLHQDWLNGKEYKCKVSNKALPASIEKTISKAKGQPREPQVYTLPPSRDELTKNQVSLTCLVKGFYPSDIAVEWESNGQPENNYKTTPPVLDSDGSFFLYSKLTVDKSRWQQGNVFSCSVMHEALHNHYTQKSLSLSPGKGGGGSGGGGSGNSQVQLKESGPGLVAPSQSLSITCTVSGFSLTGYGVNWVRQPPGKGLEWLGMIWGDGSTDYNSALKSRLSITKDNSKSQVFLKMNSLQTDDTARYYCARDGYSNFHYYVMDYWGQGTSVTVSSGGGGSGGGGSGGGGSGGGGSDIVLTQSPASLAVSLGQRATISCRASESVEYYVTSLMQWYQQKPGQPPKLLISAASNVESGVPARFSGSGSGTDFSLNIHPVEEDDIAMYFCQQSRKVPWTFGGGTKLEIKR
notes: Assembled from modules as m11; also called 2H7-sss-hIgG-H4-2e12 HL
B5: 2H7-sss-hIgG-L6-2e12 (H6 linker, 2e12 VL-VH) (bispecific antibody)
chain (part 1 of 2): QIVLSQSPAILSASPGEKVTMTCRASSSVSYMHWYQQKPGSSPKPWIYAPSNLASGVPARFSGSGSGTSYSLTISRVEAEDAATYYCQQWSFNPPTFGAGTKLELKDGGGSGGGGSGGGGSSQAYLQQSGAESVRPGASVKMSCKASGYTFTSYNMHWVKQTPRQGLEWIGAIYPGNGDTSYNQKFKGKATLTVDKSSSTAYMQLSSLTSEDSAVYFCARVVYYSNSYWYFDVWGTGTTVTVSEPKSSDKTHTSPPSP
chain (part 2 of 2): GGGGSGGGGSGGGGSGNSDIVLTQSPASLAVSLGQRATISCRASESVEYYVTSLMQWYQQKPGQPPKLLISAASNVESGVPARFSGSGSGTDFSLNIHPVEEDDIAMYFCQQSRKVPWTFGGGTKLEIKRGGGGSGGGGSGGGGSQVQLKESGPGLVAPSQSLSITCTVSGFSLTGYGVNWVRQPPGKGLEWLGMIWGDGSTDYNSALKSRLSITKDNSKSQVFLKMNSLQTDDTARYYCARDGYSNFHYYVMDYWGQGTSVTVSS
notes: Assembled from modules as m10; not shown: human IgG1 CH2-CH3
B6: 2H7-sss-hIgG-L1-2e12 (H1 linker, 2e12 VL-VH) (bispecific antibody)
chain (part 1 of 2): B5 chain (part 1 of 2)
chain (part 2 of 2): NSDIVLTQSPASLAVSLGQRATISCRASESVEYYVTSLMQWYQQKPGQPPKLLISAASNVESGVPARFSGSGSGTDFSLNIHPVEEDDIAMYFCQQSRKVPWTFGGGTKLEIKRGGGGSGGGGSGGGGSQVQLKESGPGLVAPSQSLSITCTVSGFSLTGYGVNWVRQPPGKGLEWLGMIWGDGSTDYNSALKSRLSITKDNSKSQVFLKMNSLQTDDTARYYCARDGYSNFHYYVMDYWGQGTSVTVSS
notes: as for B5
B7: 2H7-sss-hIgG-L3-2e12 (H3 linker, 2e12 VL-VH) (bispecific antibody)
chain (part 1 of 2): B5 chain (part 1 of 2)
chain (part 2 of 2): NYGGGGSGNSDIVLTQSPASLAVSLGQRATISCRASESVEYYVTSLMQWYQQKPGQPPKLLISAASNVESGVPARFSGSGSGTDFSLNIHPVEEDDIAMYFCQQSRKVPWTFGGGTKLEIKRGGGGSGGGGSGGGGSQVQLKESGPGLVAPSQSLSITCTVSGFSLTGYGVNWVRQPPGKGLEWLGMIWGDGSTDYNSALKSRLSITKDNSKSQVFLKMNSLQTDDTARYYCARDGYSNFHYYVMDYWGQGTSVTVSS
notes: as for B5
B8: 2H7-sss-hIgG-L2-2e12 (H2 linker, 2e12 VL-VH) (bispecific antibody)
chain (part 1 of 2): B5 chain (part 1 of 2)
chain (part 2 of 2): GGGGSGNSDIVLTQSPASLAVSLGQRATISCRASESVEYYVTSLMQWYQQKPGQPPKLLISAASNVESGVPARFSGSGSGTDFSLNIHPVEEDDIAMYFCQQSRKVPWTFGGGTKLEIKRGGGGSGGGGSGGGGSQVQLKESGPGLVAPSQSLSITCTVSGFSLTGYGVNWVRQPPGKGLEWLGMIWGDGSTDYNSALKSRLSITKDNSKSQVFLKMNSLQTDDTARYYCARDGYSNFHYYVMDYWGQGTSVTVSS
notes: as for B5
B9: 2H7-sss-hIgG-L4-2e12 (H4 linker, 2e12 VL-VH) (bispecific antibody)
chain (part 1 of 2): B5 chain (part 1 of 2)
chain (part 2 of 2): GGGGSGGGGSGNSDIVLTQSPASLAVSLGQRATISCRASESVEYYVTSLMQWYQQKPGQPPKLLISAASNVESGVPARFSGSGSGTDFSLNIHPVEEDDIAMYFCQQSRKVPWTFGGGTKLEIKRGGGGSGGGGSGGGGSQVQLKESGPGLVAPSQSLSITCTVSGFSLTGYGVNWVRQPPGKGLEWLGMIWGDGSTDYNSALKSRLSITKDNSKSQVFLKMNSLQTDDTARYYCARDGYSNFHYYVMDYWGQGTSVTVSS
notes: as for B5
B10: 2H7-sss-hIgG-L5-2e12 (H5 linker, 2e12 VL-VH) (bispecific antibody)
chain (part 1 of 2): B5 chain (part 1 of 2)
chain (part 2 of 2): NYGGGGSGGGGSGNSDIVLTQSPASLAVSLGQRATISCRASESVEYYVTSLMQWYQQKPGQPPKLLISAASNVESGVPARFSGSGSGTDFSLNIHPVEEDDIAMYFCQQSRKVPWTFGGGTKLEIKRGGGGSGGGGSGGGGSQVQLKESGPGLVAPSQSLSITCTVSGFSLTGYGVNWVRQPPGKGLEWLGMIWGDGSTDYNSALKSRLSITKDNSKSQVFLKMNSLQTDDTARYYCARDGYSNFHYYVMDYWGQGTSVTVSS
notes: as for B5

molecular target: T1, CD20; test: flow cytometry on WIL2-S cells (CD20), protein A purified protein at 0.72 ug/ml, FITC goat anti-human IgG
Protocol: “L1-L6” refers to the 2H7-sss-hIgG-Lx-2e12 molecules where […] represents the L1-L6 linkers and the 2e12 V regions in the orientation of VL-VH. All the molecules were tested at a concentration of 0.72 μg/ml, and the binding detected using FITC conjugated goat anti-human IgG at 1:100.

Row | Binder | binding result
1 | B1 | binds
2 | B2 | binds
3 | B3 | binds
4 | B4 | binds
5 | B5 | binds
6 | B6 | binds
7 | B7 | binds
8 | B8 | binds
9 | B9 | binds
10 | B10 | binds
